Source: US7098302B2, “Binding peptides specific for the extracellular domain of ErbB2 and uses therefor” (University of Vermont and State Agricultural College, priority 2001, dated 2006)

Key:
[1] = molecular target: T1, ErbB2 (pY1248, pY877) in SKBR3 cells (Homo sapiens, UniProt P04626); experiment: ErbB2 phosphorylation, Western blot with phospho-specific ErbB2 antibodies and densitometry; format: cell-based
T1 construct: ErbB2 overexpressing SKBR3 cells were treated with the EC-1 free peptide; endogenous in cells; host or cells: SKBR3
Method: FIG. 6A is a Western blot analysis of SKBR3 cell lysates made at various times following 15 minute treatment with 25 μM EC-1 peptide. Blots were probed with pY1248 phospho ErbB2 antibody, pY877 phospho ErbB2 antibody and total ErbB2 antibody.
ErbB2 overexpressing SKBR3 cells were treated with the EC-1 free peptide to determine its effect on ErbB2 activation. When ErbB2 is activated it becomes phosphorylated on specific tyrosine residues (i.e., pY1248 and pY877). This is turn triggers downstream signal transduction events, culminating in increased cellular proliferation. Viable SKBR3 cells were treated with 25 μM EC-1 peptide for 15 minutes. At 0.5, 2, 4, 8, 22 and 48 hours thereafter, cell lysates were prepared and run on a Western blot using phospho-specific ErbB2 antibodies. […] (See FIG. 6B.) The peptide had no effect on total ErbB2 expression.

[2] = molecular target: T2, native, intact ErbB2 extracted from the membranes of human breast cancer cells (Homo sapiens, UniProt P04626); experiment: ELISA of peptide phage on solubilized membrane lysates captured with anti-ErbB2 antibody; format: binding
T2 construct: native, intact ErbB2 extracted from the membranes of human breast cancer cells; endogenous in cells; host or cells: BT474 and SKBR3 breast cancer cells (MCF7 as low-expression control)
Method: The above identified peptide phage specifically bind to native, intact ErbB2 extracted from the membranes of human breast cancer cells that overexpress ErbB2. Plates were coated with 1 μg of an antibody that binds to the intracellular domain of ErbB2, followed by 100 μl of solubilized membrane preparations from two different breast cancer cell lines that overexpress ErbB2 (BT474 and SKBR3), and probed with CB1 peptide-phage, control library phage, and 9G6 anti-ErbB2. MCF7 cells serve as a (relative) negative target control, as MCF7 breast cancer cells express only a low level of ErbB2.
Peptide phage derived from the EC-1 biases library similarly bind specifically to membrane lysates from ErbB2 expressing SKBR3 cells but not to lysates from minimally expressing MCF7 cells. (See FIG. 2B.)

Substance: WTGW C LNPEESTWGF C TGSF (WTGWCLNPEESTWGFCTGSF) [EC-1]
- time for which phosphorylation of ErbB2 is inhibited after treatment ([1]; 25 μM EC-1): at least 8 hours
- effect on total ErbB2 expression ([1]; 25 μM EC-1 peptide): no effect
- inhibition of the phosphorylation of residues pY1248 and pY877 of ErbB2 ([1]; 25 μM EC-1 peptide for 15 minutes, after 0.5 hrs): 40%
- binding to membrane lysates from ErbB2 overexpressing cells by ELISA ([2]; BT474 and/or SKBR3 lysates): binding to SKBR3
- binding to membrane lysates from MCF7 cells by ELISA ([2]; MCF7 cells express only a low level of ErbB2): not to MCF7
